Test results reported in publication PMC2821871 (Biochemistry, 2010).
No end group written: not given here. *: point of attachment. Biotin = O=C1N[C@H]2[C@H](CS[C@H]2CCCCC(=O)*)N1

T1: CR17 of LRP (human, UniProt Q07954 2770-2817)
T1 chain (looked up): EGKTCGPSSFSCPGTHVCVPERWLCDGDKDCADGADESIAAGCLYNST


How the values were obtained:
[1] = molecular target: T1, CR17 of LRP
[2] = molecular target: CR16-18 of LRP (P. pastoris) (human, UniProt Q07954 2731-2857); assay: SPR
Chain of CR16-18 of LRP (P. pastoris) (Q07954 2731-2857): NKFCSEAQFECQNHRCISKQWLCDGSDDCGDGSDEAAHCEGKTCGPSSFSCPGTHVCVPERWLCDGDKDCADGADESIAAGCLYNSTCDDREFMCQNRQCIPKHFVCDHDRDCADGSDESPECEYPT

Row | Kd [1] [mM] | Kd [2] [mM] | KD (Global) [1] [mM] | KD (Largest) [1] [mM] | KD (Sum) [1] [mM] | Binder
1 | > 5 |  |  |  |  | TEELRVRLASH (peptide, UniProt P02649 148-158, looked up) [Ub-ApoE(130-140)]
2 |  | ~0.0002 |  |  |  | Biotin-LRKLRKRLLRDADDLLRKLRKRLLRDADDL (peptide, UniProt P02649 159-173, looked up) [biotinylated ApoE(141-155)^2 peptide]
3 | 3.46 |  | 3.84 ± 0.801 | 2.76 ± 0.361 | 3.78 ± 0.375 | TEELRVRLASHLRALRARLL (peptide, UniProt P02649 148-167, looked up) [Ub-ApoE(130-149)(K143/146A)]
